Data: PMC4346919, “Structural Analysis of the Complex between Penta-EF-Hand ALG-2 Protein and Sec31A Peptide Reveals a Novel Target Recognition Mechanism of ALG-2” (International Journal of Molecular Sciences, 2015)

B3: biotin-labeled ALG-2 (natural protein, human, UniProt O75340 1-191, looked up)
chain: MAAYSYRPGPGAGPGPAAGAALPDQSFLWNVFQRVDKDRSGVISDTELQQALSNGTWTPFNPVTVRSIISMFDRENKAGVNFSEFTGVWKYITDWQNVFRTYDRDNSGMIDKNELKQALSGFGYRLSDQFHDILIRKFDRQGRGQIAFDDFIQGCIVLQRLTDIFRRYDTDQDGWIQVSYEQYLSMVFSIV
modifications: biotin-labeled
notes: ALG-2 (PDCD6), probe of the far-Western blots; also called bio-ALG-2

Key:
Test in all cases: far-Western, overlay or dot blot; purified GST-fused peptides resolved by SDS-PAGE, transferred to PVDF membranes and probed with biotin-labeled ALG-2; chemiluminescence, quantified with ImageJ
Details in all cases: both partners purified
biotin-labeled ALG-2 = target: B3
[1] = target: T1, GST-8 aa-fusion of PLSCR3 (43–50) (UniProt Q9NRY6 43-50)
T1 construct: PLSCR3 residues 43-50; also called PLSCR3 8 aa, encoding 43–50
T1 chain (looked up): PAPAPGFA

[2] = target: T2, GST-fused Sec31A 8-residue peptide P4S (human, P4S)
T2 construct: Sec31A residues 837-844; numbers count on: the 8-residue peptide (N1 = residue 837 of Sec31A)
T2 chain: NPPSPGFI

B1: GST-fused Sec31A 8-residue peptide P4A (peptide)
chain: NPPAPGFI
notes: Sec31A residues 837-844; numbers count on: the 8-residue peptide (N1 = residue 837 of Sec31A)
biotin-labeled ALG-2
  binding result: binds

B2: GST-fused Sec31A 8-residue peptide P5A (peptide)
chain: NPPPAGFI
notes: as for B1
biotin-labeled ALG-2
  binding result: binds

## B3
[1]
  FW signal relative to that for Sec31A: < 0.0625 of the signal for Sec31A
[2]
  relative binding activity (percent of WT): ~20 % of WT

B4: GST-fused Sec31A peptide, 13 aa (837–849) (peptide, UniProt O94979 837-849, looked up)
chain: NPPPPGFIMHGNV
notes: Sec31A residues 837-849; also called Sec31A 13 aa, encoding 837–849
biotin-labeled ALG-2
  binding result: binds

B5: GST-fused Sec31A peptide, 13 aa (839–851) (peptide, UniProt O94979 839-851, looked up)
chain: PPPGFIMHGNVNP
notes: also called Sec31A 13 aa, encoding 839–851
biotin-labeled ALG-2
  binding result: binds

B6: GST-fused Sec31A 8-residue peptide P2A (peptide)
chain: NAPPPGFI
notes: as for B1
biotin-labeled ALG-2
  binding result: binds

B7: GST-fused Sec31A 8-residue peptide P5L (peptide)
chain: NPPPLGFI
notes: as for B1
biotin-labeled ALG-2
  binding result: binds
